Blank lines part the entries; values can stand above or below the binder they belong to.
Columns and labels:
[1] = target: T1, human EGFR, recombinant protein (human, UniProt P00533 25-645); assay: protein based binding; method not stated
T1 construct: also called hEGFR

[2] = target: Cyno EGFR (cynomolgus, UniProt A0A2K5WK39 25-645); assay: protein based binding; method not stated
[3] = target: membrane EGFR on cells (human, UniProt P00533 25-1210); assay: cell-based or functional assay
[4] = target: T1, human EGFR, recombinant protein; assay: method not stated
[5] = target: T2, human PD-L1, recombinant protein (human, UniProt Q9NZQ7 19-239, limits assumed); assay: SPR
T2 construct: also called rhPD-L1; PD-L1-his
T2 sequence (Q9NZQ7 19-239 limits assumed): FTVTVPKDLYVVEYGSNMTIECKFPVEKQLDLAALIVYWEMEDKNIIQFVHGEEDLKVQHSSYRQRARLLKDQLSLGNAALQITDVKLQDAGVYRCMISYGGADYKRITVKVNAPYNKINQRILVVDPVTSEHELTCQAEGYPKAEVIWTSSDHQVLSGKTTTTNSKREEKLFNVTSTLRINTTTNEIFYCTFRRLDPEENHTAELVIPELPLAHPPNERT

[6] = target: T3, c-Met, recombinant protein (human, UniProt P08581 25-932, limits assumed); assay: SPR
T3 construct: also called human cMet; cMet-his
T3 sequence (P08581 25-932 limits assumed): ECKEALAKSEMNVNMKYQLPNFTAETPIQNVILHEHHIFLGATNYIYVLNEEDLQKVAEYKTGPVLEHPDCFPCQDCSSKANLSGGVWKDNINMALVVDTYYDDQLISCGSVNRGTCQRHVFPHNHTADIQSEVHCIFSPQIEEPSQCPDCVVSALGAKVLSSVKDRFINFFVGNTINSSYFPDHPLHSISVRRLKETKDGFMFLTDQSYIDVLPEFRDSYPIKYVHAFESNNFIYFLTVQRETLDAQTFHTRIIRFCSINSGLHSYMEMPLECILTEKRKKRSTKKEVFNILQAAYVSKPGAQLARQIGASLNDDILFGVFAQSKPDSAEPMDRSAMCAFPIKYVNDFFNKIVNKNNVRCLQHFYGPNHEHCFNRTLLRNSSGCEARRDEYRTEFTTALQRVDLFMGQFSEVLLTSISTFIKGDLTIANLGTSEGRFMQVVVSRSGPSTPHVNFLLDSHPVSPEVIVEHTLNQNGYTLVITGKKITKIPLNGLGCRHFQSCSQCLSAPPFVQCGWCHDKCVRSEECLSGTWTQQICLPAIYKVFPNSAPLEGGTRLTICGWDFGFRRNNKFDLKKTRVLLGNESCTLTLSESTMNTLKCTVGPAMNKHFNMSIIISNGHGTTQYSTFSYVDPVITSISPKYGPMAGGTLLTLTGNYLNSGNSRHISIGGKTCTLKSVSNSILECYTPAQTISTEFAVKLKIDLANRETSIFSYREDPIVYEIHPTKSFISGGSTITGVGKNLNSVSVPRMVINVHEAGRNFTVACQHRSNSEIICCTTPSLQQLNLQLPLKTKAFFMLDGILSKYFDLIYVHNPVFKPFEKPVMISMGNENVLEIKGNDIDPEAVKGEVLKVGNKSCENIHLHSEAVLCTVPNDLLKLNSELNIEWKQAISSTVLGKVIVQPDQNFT

[7] = target: T4, CD3 on the cell surface of Jurkat cells (human, UniProt P07766 23-207); assay: FACS on Jurkat cells, 100 nM
T4 construct: whole, on cells; CD3 is a complex of several chains; also called CD3 (Jurkat)

[8] = target: T5, CD22 on Raji and Daudi cells (human, UniProt P20273); assay: FACS on Raji cells, Alexa Fluor 488 anti-human IgG1, MFI; the curve reaches only about 130 MFI
T5 construct: on the cell surface of the human B cell lines Raji and Daudi; the sheet names only the cell lines (Raji, Daudi); CD22 is the target that the text gives for Epratuzumab

[9] = target: VEGF (UniProt P15692-4 27-191, limits assumed); assay: method not stated
VEGF, sequence (P15692 other isoform, or with tags, fused parts or gaps limits assumed): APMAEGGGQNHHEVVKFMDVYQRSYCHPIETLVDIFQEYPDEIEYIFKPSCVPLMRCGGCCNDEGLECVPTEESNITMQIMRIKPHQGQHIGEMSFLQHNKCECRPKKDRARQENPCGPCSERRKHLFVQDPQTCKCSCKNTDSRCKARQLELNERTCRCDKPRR

[10] = target: IGF1R (UniProt P08069 31-932, limits assumed); assay: method not stated
[11] = target: T3, c-Met, recombinant protein; assay: protein based binding; method not stated
[12] = target: Cyno cMet (cynomolgus, UniProt A0A2K5UM36 25-932); assay: protein based binding; method not stated
Cyno cMet, sequence (A0A2K5UM36 entry or part of it limits assumed): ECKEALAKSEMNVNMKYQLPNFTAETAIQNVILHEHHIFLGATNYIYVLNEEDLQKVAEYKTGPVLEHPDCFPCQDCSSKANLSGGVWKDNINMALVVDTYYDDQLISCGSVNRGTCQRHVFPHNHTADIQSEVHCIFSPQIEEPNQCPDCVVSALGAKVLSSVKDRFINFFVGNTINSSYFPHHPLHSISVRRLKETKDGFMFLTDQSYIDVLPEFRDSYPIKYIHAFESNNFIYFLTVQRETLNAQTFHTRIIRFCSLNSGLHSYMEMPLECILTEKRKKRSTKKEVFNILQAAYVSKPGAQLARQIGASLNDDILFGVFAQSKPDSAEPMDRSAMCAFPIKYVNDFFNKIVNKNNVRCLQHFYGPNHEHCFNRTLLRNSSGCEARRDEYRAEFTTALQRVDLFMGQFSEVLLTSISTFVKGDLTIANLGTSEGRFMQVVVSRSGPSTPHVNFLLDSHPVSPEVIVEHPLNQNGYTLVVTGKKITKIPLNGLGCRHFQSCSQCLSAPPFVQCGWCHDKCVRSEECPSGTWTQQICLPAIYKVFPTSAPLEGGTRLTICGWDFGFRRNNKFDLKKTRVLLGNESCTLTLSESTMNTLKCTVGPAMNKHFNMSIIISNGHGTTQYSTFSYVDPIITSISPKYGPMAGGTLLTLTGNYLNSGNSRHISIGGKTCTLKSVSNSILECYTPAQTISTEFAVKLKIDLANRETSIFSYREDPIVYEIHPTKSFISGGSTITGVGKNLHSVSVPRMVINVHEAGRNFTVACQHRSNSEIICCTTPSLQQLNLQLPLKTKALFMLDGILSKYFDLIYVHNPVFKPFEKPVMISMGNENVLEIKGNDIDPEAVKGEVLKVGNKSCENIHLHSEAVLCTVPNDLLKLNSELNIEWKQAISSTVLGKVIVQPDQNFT

[13] = target: T3, c-Met, recombinant protein; assay: method not stated
[14] = target: T2, human PD-L1, recombinant protein; assay: method not stated
[15] = target: T2, human PD-L1, recombinant protein; assay: SPR Biacore X100, antigen immobilised on CM5, Ig injected
[16] = target: T4, CD3 on the cell surface of Jurkat cells; assay: FACS on Jurkat cells, Alexa Fluor 488 anti-human IgG1, MFI
[17] = target: T1, human EGFR, recombinant protein; assay: method not stated; remark: listed apart in the source
[18] = target: T2, human PD-L1, recombinant protein; assay: method not stated; remark: listed apart in the source
[19] = target: T6, hPD1-Fc (human, UniProt Q15116 25-167); assay: SPR
T6 construct: not shown: Fc part not described
T6 sequence (Q15116 25-167): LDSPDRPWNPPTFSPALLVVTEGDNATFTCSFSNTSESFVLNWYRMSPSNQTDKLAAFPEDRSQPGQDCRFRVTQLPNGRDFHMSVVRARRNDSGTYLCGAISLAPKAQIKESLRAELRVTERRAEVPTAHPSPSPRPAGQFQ

Kd [1]: 0.534 nM
Kd [2]: 0.577 nM
EGFR Depletion (%) on H441 cell, FACS [3]: 65.9%
B1: FIT013a cMet (h1332 (13.3.2L-A91T,H-42K,S97T))/EGFR (panitumumab) (bispecific antibody, human IgG1, kappa)
chain 1: not shown
chain 2: QVQLVQSGAEVKKPGASVKVSCKASGYTFTSYGFSWVRQAPGQGLEWMGWISASNGNTYYAQKLQGRVTMTTDTSTSTAYMELRSLRSDDTAVYYCARVYADYADYWGQGTLVTVSSASTKGPSVFPLAPSSKSTSGGTAALGCLVKDYFPEPVTVSWNSGALTSGVHTFPAVLQSSGLYSLSSVVTVPSSSLGTQTYICNVNHKPSNTKVDKKVEPKSC
chain 3: not shown
notes: leader left out; also called FIT013a (c-met/EGFR)

Kd [4]: 1.52 nM
B2: FIT13a-Ig cMet (h1332)/EGFR (panitumumab) (bispecific antibody, human IgG1, kappa)
chain 1: not shown
chain 2: B1 chain 2
chain 3: not shown
notes: also called FIT-Ig13a

Kd [5]: 0.731 nM
Kd [6]: 1.49 nM
B3: FIT023a cMet (h1332)/PD-L1 (1B12) (bispecific antibody, human IgG1, kappa)
chain 1: not shown
chain 2: B1 chain 2
chain 3: not shown
notes: leader left out; also called FIT023a-Ig

Binding Intensity by FACS (MFI) [7]: 159 MFI
B4: OKT3/Ofatumumab FIT7-Ig (bispecific antibody, human IgG1, kappa)
chain 1: not shown
chain 2: not shown
chain 3: not shown
notes: no linker; also called anti-CD3/CD20 FIT-Ig

Binding Intensity by FACS (MFI) [7]: 211 MFI
B5: OKT3/Ofatumumab FIT8-Ig (bispecific antibody, human IgG1, kappa)
chain 1: not shown
chain 2: not shown
chain 3: not shown
notes: GGGGSGS linker

EC50 [8]: 13.2 nM
B6: Epratuzumab (antibody, V domains shown)
VH: QVQLVQSGAEVKKPGSSVKVSCKASGYTFTSYWLHWVRQAPGQGLEWIGYINPRNDYTEYNQNFKDKATITADESTNTAYMELSSLRSEDTAFYFCARRDITTFYWGQGTTVTVSS
VL: DIQLTQSPSSLSASVGDRVTMSCKSSQSVLYSANHKNYLAWYQQKPGKAPKLLIYWASTRESGVPSRFSGSGSGTDFTFTISSLQPEDIATYYCHQYLSSWTFGGGTKLEIK
notes: also called CD22 antibody Epratuzumab

Kd [9]: 0.0365 nM
B7: FIT017a DLL4 (demcizumab)/VEGF (bevcizumab) (bispecific antibody, human IgG1, kappa)
chain 1: not shown
chain 2: QVQLVQSGAEVKKPGASVKISCKASGYSFTAYYIHWVKQAPGQGLEWIGYISSYNGATNYNQKFKGRVTFTTDTSTSTAYMELRSLRSDDTAVYYCARDYDYDVGMDYWGQGTLVTVSSASTKGPSVFPLAPSSKSTSGGTAALGCLVKDYFPEPVTVSWNSGALTSGVHTFPAVLQSSGLYSLSSVVTVPSSSLGTQTYICNVNHKPSNTKVDKKVEPKSC
chain 3: not shown
notes: leader left out

Kd [10]: 0.729 nM
B8: IGF-1R antibody Figitumumab (antibody, V domains shown)
VH: EVQLLESGGGLVQPGGSLRLSCTASGFTFSSYAMNWVRQAPGKGLEWVSAISGSGGTTFYADSVKGRFTISRDNSRTTLYLQMNSLRAEDTAVYYCAKDLGWSDSYYYYYGMDVWGQGTTVTVSS
VL: DIQMTQFPSSLSASVGDRVTITCRASQGIRNDLGWYQQKPGKAPKRLIYAASRLHRGVPSRFSGSGSGTEFTLTISSLQPEDFATYYCLQHNSYPCSFGQGTKLEIK
notes: parental mAb

Kd [11]: 1.27 nM
Kd [12]: 4.53 nM
Kd [13]: 2.63 nM
EGFR Depletion (%) on H441 cell, FACS [3]: 0%
Kd [6]: 2.19 nM
B9: cMet antibody h1332 (13.3.2L-A91T,H-42K,S97T) (antibody, V domains shown)
VH: QVQLVQSGAEVKKPGASVKVSCKASGYTFTSYGFSWVRQAPGQGLEWMGWISASNGNTYYAQKLQGRVTMTTDTSTSTAYMELRSLRSDDTAVYYCARVYADYADYWGQGTLVTVSS
VL: DIQMTQSPSSVSASVGDRVTITCRASQGINTWLAWYQQKPGKAPKLLIYAASSLKSGVPSRFSGSGSGTDFTLTISSLQPEDFATYYCQQANSFPLTFGGGTKVEIK
notes: parental mAb; also called mAb-h1332

Kd [2]: 0.362 nM
B10: EGFR antibody Panitumumab (antibody, V domains shown)
VH: QVQLQESGPGLVKPSETLSLTCTVSGGSVSSGDYYWTWIRQSPGKGLEWIGHIYYSGNTNYNPSLKSRLTISIDTSKTQFSLKLSSVTAADTAIYYCVRDRVTGAFDIWGQGTMVTVSS
VL: DIQMTQSPSSLSASVGDRVTITCQASQDISNYLNWYQQKPGKAPKLLIYDASNLETGVPSRFSGSGSGTDFTFTISSLQPEDIATYFCQHFDHLPLAFGGGTKVEIK
notes: parental mAb

Kd [14]: 9.08 nM
Kd [5]: 0.708 nM
Kd [15]: 0.402 nM
B11: PD-L1 antibody 1B12 (antibody, V domains shown)
VH: QVQLVQSGAEVKKPGSSVKVSCKTSGDTFSSYAISWVRQAPGQGLEWMGGIIPIFGRAHYAQKFQGRVTITADESTSTAYMELSSLRSEDTAVYFCARKFHFVSGSPFGMDVWGQGTTVTVSS
VL: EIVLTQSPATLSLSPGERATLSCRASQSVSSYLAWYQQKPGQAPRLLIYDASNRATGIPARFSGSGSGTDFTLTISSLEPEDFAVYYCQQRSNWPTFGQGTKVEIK
notes: parental mAb

binding result [16]: no binding (tested: about 130 nM)
B12: anti-CD20 mAb Ofatumumab (antibody, V domains shown)
VH: EVQLVESGGGLVQPGRSLRLSCAASGFTFNDYAMHWVRQAPGKGLEWVSTISWNSGSIGYADSVKGRFTISRDNAKKSLYLQMNSLRAEDTALYYCAKDIQYGNYYYGMDVWGQGTTVTVSS
VL: EIVLTQSPATLSLSPGERATLSCRASQSVSSYLAWYQQKPGQAPRLLIYDASNRATGIPARFSGSGSGTDFTLTISSLEPEDFAVYYCQQRSNWPITFGQGTRLEIK
notes: parental mAb

Kd [14]: 3.89 nM
B13: FIT012b-Ig EGFR (panitumumab)/PD-L1 (1B12) (bispecific antibody, human IgG1, kappa)
chain 1: not shown
chain 2: QVQLQESGPGLVKPSETLSLTCTVSGGSVSSGDYYWTWIRQSPGKGLEWIGHIYYSGNTNYNPSLKSRLTISIDTSKTQFSLKLSSVTAADTAIYYCVRDRVTGAFDIWGQGTMVTVSSASTKGPSVFPLAPSSKSTSGGTAALGCLVKDYFPEPVTVSWNSGALTSGVHTFPAVLQSSGLYSLSSVVTVPSSSLGTQTYICNVNHKPSNTKVDKKVEPKSC
chain 3: not shown
notes: leader left out

Kd [17]: 0.338 nM
B14: FIT019b-Ig EGFR (Panitumumab)/HER3 (patritumab) (bispecific antibody, human IgG1, kappa)
chain 1: not shown
chain 2: B13 chain 2
chain 3: not shown
notes: leader left out

Kd [18]: 0.58 nM
B15: FIT012d-Ig EGFR (panitumumab)/PD-L1 (10A5) (bispecific antibody)
chain 1: not shown
chain 2: B13 chain 2
chain 3: not shown
notes: leader left out

Kd [18]: 0.735 nM
B16: PD-L1 antibody 10A5 (antibody, V domains shown)
VH: QVQLVQSGAEVKKPGASVKVSCKASGYTFTSYDVHWVRQAPGQRLEWMGWLHADTGITKFSQKFQGRVTITRDTSASTAYMELSSLRSEDTAVYYCARERIQLWFDYWGQGTLVTVSS
VL: DIQMTQSPSSLSASVGDRVTITCRASQGISSWLAWYQQKPEKAPKSLIYAASSLQSGVPSRFSGSGSGTDFTLTISSLQPEDFATYYCQQYNSYPYTFGQGTKLEIK
notes: parental mAb

Kd [10]: 2.72 nM
B17: FIT016a HER3 (Patritumab)/IGF1R (Figitumumab) (bispecific antibody, human IgG1, kappa)
chain 1: not shown
chain 2: QVQLQQWGAGLLKPSETLSLTCAVYGGSFSGYYWSWIRQPPGKGLEWIGEINHSGSTNYNPSLKSRVTISVETSKNQFSLKLSSVTAADTAVYYCARDKWTWYFDLWGRGTLVTVSSASTKGPSVFPLAPSSKSTSGGTAALGCLVKDYFPEPVTVSWNSGALTSGVHTFPAVLQSSGLYSLSSVVTVPSSSLGTQTYICNVNHKPSNTKVDKKVEPKSC
chain 3: DIQMTQFPSSLSASVGDRVTITCRASQGIRNDLGWYQQKPGKAPKRLIYAASRLHRGVPSRFSGSGSGTEFTLTISSLQPEDFATYYCLQHNSYPCSFGQGTKLEIKRTVAAPSVFIFPPSDEQLKSGTASVVCLLNNFYPREAKVQWKVDNALQSGNSQESVTEQDSKDSTYSLSSTLTLSKADYEKHKVYACEVTHQGLSSPVTKSFNRGEC
notes: leader left out

Kd [19]: 2.34 nM
B18: FIT022a HER3 (patritumab)/PD-1 (nivolumab) (bispecific antibody, human IgG1, kappa)
chain 1: not shown
chain 2: B17 chain 2
chain 3: not shown
notes: leader left out; also called FIT022a-Ig

Reference: US20230220080A1 (EPIMAB BIOTHERAPEUTICS, published 2023)
